The data set can be described thus: protein stability index of a GFP-peptide fusion (yeast GPS) (PSI 1-4); higher = more stable; sorted into four equal gates, so the index is relative within each strain. An outline of the steps: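 Each library plasmid carries Cherry plus GFP with a tiled 17-residue yeast protein peptide fused downstream, and the pooled library was carried in yeast. Mid-log cultures in leucine-free medium were sorted into four equal gates by GFP/Cherry ratio. Reads from Illumina sequencing of PCR-amplified plasmids from each gate were assigned to strains by barcodes. Per peptide, the protein stability index was computed as the summed products of gate read frequency and gate number.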

± gives the uncertainty stated by the source.

Turning to IGSGAMSPLECRNILGV [RPP1], the protein stability index is 1.93 ± 0.03 (doa10∆), 2.43 ± 0.046 (pdr5∆), 2.19 ± 0.064 (san1∆) and 2.38 ± 0.034 (ubr1∆).
For QHLQFNGSSDASSLRFG [YDL088C/ASM4], the protein stability index runs as follows: (doa10∆) 2.24 ± 0.055; (pdr5∆) 2.3 ± 0.049; (san1∆) 1.99 ± 0.076; (ubr1∆) 1.83 ± 0.038.
As to LSEDKKKLDYVLALKVE [RPS9A], the protein stability index by setting is: (doa10∆) 1.31 ± 0.17; (pdr5∆) 2.22 ± 0.23; (san1∆) 1.41 ± 0.16; (ubr1∆) 1.49 ± 0.29.
Take LIGAATKFKGGKRQLMK [SEC65]: the protein stability index by setting is: (doa10∆) 1.64 ± 0.1; (pdr5∆) 2.03 ± 0.084; (san1∆) 2.14 ± 0.11; (ubr1∆) 1.93 ± 0.14.
HWSVSFQAHEITSFLLS [NAS6]: the protein stability index came out at 2.28 ± 0.056 (doa10∆), 1.92 ± 0.051 (pdr5∆), 1.76 ± 0.08 (san1∆) and 2.02 ± 0.04 (ubr1∆).
For the sequence ALQQQQQQQQNQQQQNQ [SWI1], the protein stability index reads like this: (doa10∆) 2.77 ± 0.062; (pdr5∆) 2.97 ± 0.068; (san1∆) 2.75 ± 0.047; (ubr1∆) 2.78 ± 0.079.
Taken in the same sequence, the figures for SASRAKNMPVIYNNIVS [RGR1] were 2.42 ± 0.064, 2.26 ± 0.064, 2.31 ± 0.053 and 2.34 ± 0.047.
For AFKATNQTNINSLAVRG [SCL1], the protein stability index is 3.1 ± 0.11 (doa10∆), 3.21 ± 0.085 (pdr5∆) and 2.84 ± 0.11 (ubr1∆).
With LQNNINNSNNNNIIRIQ [SNF11], the protein stability index (doa10∆) came out at 2.94 ± 0.089, the protein stability index (pdr5∆) is 2.57 ± 0.13, the protein stability index (san1∆) is 2.87 ± 0.069 and the protein stability index (ubr1∆) came to 3.32 ± 0.089.
In the case of NKKRPSSKKVFSSNLSY [YOR098C/NUP1], the protein stability index by setting is: (doa10∆) 2.48 ± 0.073; (pdr5∆) 2.4 ± 0.063; (san1∆) 2.08 ± 0.1; (ubr1∆) 2.56 ± 0.05.
For NFGFGIDEHIDLGIKYD [RPL11A], the protein stability index runs as follows: (doa10∆) 2.59 ± 0.1; (pdr5∆) 2.51 ± 0.16; (san1∆) 2.39 ± 0.11; (ubr1∆) 2.39 ± 0.11.
Turning to ITLALSSNPNSSLHSPT [SRB4], the protein stability index is, setting by setting: (doa10∆) 2.9 ± 0.067; (pdr5∆) 2.99 ± 0.055; (san1∆) 2.91 ± 0.047; (ubr1∆) 3.05 ± 0.044.
The matching figures for KLRKIAISKKNKSLKYV [LIN1]: 1.65 ± 0.062, 1.33 ± 0.059, 1.23 ± 0.14 and 1.15 ± 0.048.
As for DNVSGLTRNAPLDSKDE [SNF2], the protein stability index (doa10∆) is 2.95 ± 0.063, the protein stability index (pdr5∆) was determined as 3.25 ± 0.051, the protein stability index (san1∆) is 3 ± 0.04 and the protein stability index (ubr1∆) came to 3.13 ± 0.043.
As to MEGQKLDDPVLNAIVSK [YJR042W/NUP85], the protein stability index is, setting by setting: (doa10∆) 3.27 ± 0.19; (pdr5∆) 3.2 ± 0.2; (ubr1∆) 3.21 ± 0.17.
For RLPTFLKHKSICSCVNR [RPP1], the protein stability index by setting is: (doa10∆) 1.84 ± 0.086; (pdr5∆) 2.24 ± 0.11; (san1∆) 1.98 ± 0.13; (ubr1∆) 2.83 ± 0.08.
The matching figures for GNKNQFEPSISRSNFQG [LRP1]: 2.76 ± 0.13, 2.7 ± 0.16, 2.74 ± 0.073 and 2.34 ± 0.21.
Consider SLPLIVFLRNRLKYALN [RPS4A], for which the protein stability index is, setting by setting: (doa10∆) 1.4 ± 0.059; (pdr5∆) 1.58 ± 0.092; (san1∆) 1.48 ± 0.12; (ubr1∆) 1.7 ± 0.043.
The sequence AVHNGDRKHVAALRTVK [RPL9B] yielded a protein stability index (doa10∆) of 2.09 ± 0.064, a protein stability index (pdr5∆) of 2.23 ± 0.076, a protein stability index (san1∆) of 2.36 ± 0.061 and a protein stability index (ubr1∆) of 2.71 ± 0.049.
Regarding NATLTPNDSNDEKVTIL [SWI1], the protein stability index is, setting by setting: (doa10∆) 3.02 ± 0.059; (pdr5∆) 3.22 ± 0.061; (san1∆) 3.1 ± 0.066; (ubr1∆) 3.11 ± 0.04.
PFDMGGYFIINGSEKVL [RPB2]: the protein stability index is, setting by setting: (doa10∆) 2.83 ± 0.14; (pdr5∆) 2.28 ± 0.14; (san1∆) 2.56 ± 0.27; (ubr1∆) 2.33 ± 0.16.
For RWKRFTIGAIFLNHAFD [CDC53], the protein stability index reads like this: (doa10∆) 2.54 ± 0.065; (pdr5∆) 2 ± 0.069; (san1∆) 2.18 ± 0.099; (ubr1∆) 1.53 ± 0.048.
For NFSGLNGGITNTATNAL [YOR098C/NUP1], the protein stability index amounted to 3.15 ± 0.12 (doa10∆), 2.91 ± 0.13 (pdr5∆), 2.84 ± 0.084 (san1∆) and 3.34 ± 0.11 (ubr1∆).
In the case of ETLGLKYLGLKPGSIDA [FAS1], the protein stability index was 3.24 ± 0.13 (doa10∆), 3.24 ± 0.097 (pdr5∆), 3.03 ± 0.076 (san1∆) and 3.22 ± 0.095 (ubr1∆).
On to IHQILLPTNPTLDKPNA [CSE2], for which the protein stability index reads like this: (doa10∆) 2.56 ± 0.039; (pdr5∆) 2.58 ± 0.041; (san1∆) 2.37 ± 0.044; (ubr1∆) 2.42 ± 0.034.
